Experimental data as given in the supplement of paper PMC10567573.

B1: C1orf137 (parent)
chain: LPQETNLTLKVCKPQAPQKLDPTL
B2: NEK8 (parent)
chain: VVGTPCYISPELCEGKPYNQKSDI

Variants of: B1
Test: protein stability index of a GFP-peptide fusion (GPS, HEK-293T) (PSI 1-6); higher = more stable
Conditions: c terminus: a fixed tail appended
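Note: lentivirally expressed fusions sorted by FACS into six bins by GFP to DsRed ratio, PSI derived from sequencing read proportions per bin multiplied by bin number.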

Protein stability index, by site and new letter:
D21: W 2.36 | Y 2.73
P22: F 2.35 | T 3.54 | Y 3.06 | R 3.84 | A 3.16 | M 2.98 | V 2.87 | D 4.38 | L 2.93 | G 3.39 | Q 4.25 | I 2.08 | C 2.95 | N 3.38 | H 3.13 | E 4.13 | S 2.87 | W 2.83 | K 4
T23: D 4.8 | Y 2.94 | K 4.16 | H 3.44 | V 3.4 | L 3.06 | M 3.32 | C 3.89 | G 3.8 | F 2.98 | A 3.47 | W 2.48 | R 3.48 | S 3.85 | Q 4.21 | I 3.37 | E 4.91 | N 4.2
L24: Q 4.37 | G 4.52 | T 4.39 | K 4.21 | W 3.3 | H 4.75 | Y 3.37 | F 4.32 | R 4.33 | C 4.35 | I 4.1 | N 4.56 | D 5.42 | E 4.8 | V 4.52 | A 4.34 | S 4.53 | M 3.94

Variants of: B2
Test: as above
Conditions: c terminus: a fixed tail appended

Protein stability index: each site, then its substitutions
C6: T 3.26 | F 2.14 | Q 4.11 | K 3.48
E14: G 2.52 | C 2.73 | L 2.67 | N 2.52
P17: A 2.91 | D 3.05 | E 3.09
S22: Y 2.37 | G 2.67 | L 2.63 | R 3.01
S9: A 2.45 | T 2.61 | D 3.44 | V 2.31 | C 1.94 | G 2.99
V2: Q 3.77 | R 3.4 | Y 3.23 | S 3.75 | H 3.68
K21: L 2.41 | H 2.86 | W 2.65 | Q 2.92 | F 1.75 | C 2.51
I24: D 4.21 | K 3.63 | P 3.18 | G 3.4 | A 3.45 | W 2.63
Q20: V 2.79 | G 2.71
E11: Q 2.31 | L 1.8 | P 1.76 | T 2.48 | A 2.68 | W 1.08 | N 2.66 | I 2.52 | Y 2.05
K16: I 2.02 | T 2.54 | C 2.43 | A 2.16 | Q 2.79
Y7: D 4.69 | L 3.83 | K 3.92 | A 3.94
D23: Q 2.36 | K 3.02 | S 2.17 | N 2.56
I8: M 2.89 | K 4.14 | E 4.5 | W 2.27 | R 3.7
P5: H 3.14 | L 2.28 | A 3.05 | W 1.66
N19: L 2.21 | T 2.98 | V 2.73 | F 2.14 | R 2.45 | E 2.94
Y18: C 3.05 | A 3.6
G3: E 2.7 | K 2.9 | V 2.07 | F 1.48 | Q 2.5
C13: P 2.3 | A 2.71 | N 3.23 | S 2.9
P10: E 3.6 | H 3.66 | Y 1.91 | A 2.96 | C 2.22 | D 3.23
L12: S 3.15 | H 3.59 | N 3.62 | I 2.93 | V 2.83 | G 4.29 | M 2.76 | W 1.83
T4: F 2.21 | H 3.02 | E 4.08 | W 2.13
V1: L 3.1 | K 4.06 | S 4.03 | T 3.76
